molecular target: T1, IL-1R1 on MRC-5 cells (ATCC CCL-171) (human, UniProt P14778 18-569); test: cell-based or functional assay
T1 sequence (looked up): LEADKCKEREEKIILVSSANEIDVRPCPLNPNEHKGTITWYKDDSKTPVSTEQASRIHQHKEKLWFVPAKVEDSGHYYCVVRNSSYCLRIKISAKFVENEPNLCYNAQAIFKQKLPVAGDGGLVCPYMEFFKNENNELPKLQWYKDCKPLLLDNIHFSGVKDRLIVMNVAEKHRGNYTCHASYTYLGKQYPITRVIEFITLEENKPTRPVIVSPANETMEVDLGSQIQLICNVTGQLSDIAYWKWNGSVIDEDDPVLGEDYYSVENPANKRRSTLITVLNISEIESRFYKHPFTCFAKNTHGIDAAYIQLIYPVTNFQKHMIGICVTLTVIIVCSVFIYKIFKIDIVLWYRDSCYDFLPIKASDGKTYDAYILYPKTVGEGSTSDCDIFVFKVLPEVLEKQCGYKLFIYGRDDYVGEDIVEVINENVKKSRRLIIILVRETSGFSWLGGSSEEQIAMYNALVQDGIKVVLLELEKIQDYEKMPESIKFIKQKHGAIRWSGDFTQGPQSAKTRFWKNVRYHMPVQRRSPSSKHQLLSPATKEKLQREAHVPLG

Binder | ND50, inhibition of IL-1-induced IL-8 release from MRC-5 cells [nM]
DOM4-122-6 (other) VL: DIQMTQSPSSLSASVGDRVTITCRASQWIGRELRWYQQKPGKAPMFLIYHASRLQSGVPSRFSGSGSGTDFTLTISSLQPEDFATYYCQQYHGWPLTFGQGTKVEIKR | ~10
DOM4-122-23 (other) VL: DIQMTQSPSSLSASVGDRVTITCRASQWIGRELRWYQQKPGKAPMFLIYHASRLQRGVPSRFSGSGSGTDFTLTISSLQPEDFATYYCQQYHGWPLTFGQGTKVEIKR | ~1
DOM4-129-1 (other) VL: DIQMTQSPSSLSASVGDRVTITCRASQNIDRELRWYQQKPGKAPMFLIYHASRLQRGVPSRFSGSGSGTDFTLTISSLQPEDFATYYCQQYHDFPLTFGQGTKVEIKR | ~10
